# According to US20120034160A1 (AbbVie / Abbott, published 2012):
# Substitutions are numbered along the chain they refer to.
# T1: Recombinant Human IL-17 (human, UniProt Q16552 20-155, limits assumed)
# T1 sequence (looked up): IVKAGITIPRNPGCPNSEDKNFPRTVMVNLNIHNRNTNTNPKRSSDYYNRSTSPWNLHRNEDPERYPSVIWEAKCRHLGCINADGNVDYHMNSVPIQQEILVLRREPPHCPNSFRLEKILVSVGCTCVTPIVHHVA
# T2: Recombinant Human IL-17 (human, UniProt Q16552 20-155, limits assumed)
# T2 construct: bought reagent
# T2 sequence (looked up): T1 sequence (looked up)
# B1: DVD1626 (bispecific antibody, human IgG1, kappa)
# heavy: not shown
# light: DIQMTQSPSSLSASVGDRVTITCRASSGIISYIDWFQQKPGKAPKRLIYATFDLASGVPSRFSGSGSGTDYTLTISSLQPEDFATYYCRQVGSYPETFGQGTKLEIKRTVAAPDTVVTQSPAFLSVTPGEKVTITCITSTDIDVDMNWYQQKPDQPPKLLISQGNTLRPGVPSRFSSSGSGTDFTFTISSLEAEDAATYYCLQSDNLPLTFGQGTKLEIKRTVAAPSVFIFPPSDEQLKSGTASVVCLLNNFYPREAKVQWKVDNALQSGNSQESVTEQDSKDSTYSLSSTLTLSKADYEKHKVYACEVTHQGLSSPVTKSFNRGEC
# B2: DVD1624 (bispecific antibody, human IgG1, kappa)
# heavy: not shown
# light: DIQMTQSPSSLSASVGDRVTITCRASSGIISYIDWFQQKPGKAPKRLIYATFDLASGVPSRFSGSGSGTDYTLTISSLQPEDFATYYCRQVGSYPETFGQGTKLEIKRTVAAPDTQVTQSPSSLSASVGDRVTITCITSTDIDVDMNWYQQKPGKPPKLLISQGNTLRPGVPSRFSSSGSGTDFTFTISSLQPEDFATYYCLQSDNLPLTFGQGTKLEIKRTVAAPSVFIFPPSDEQLKSGTASVVCLLNNFYPREAKVQWKVDNALQSGNSQESVTEQDSKDSTYSLSSTLTLSKADYEKHKVYACEVTHQGLSSPVTKSFNRGEC
# B3: DVD1628 (bispecific antibody, human IgG1, kappa)
# heavy: not shown
# light: B2 light with D114E, Q116T
# B4: DVD1623 (bispecific antibody, human IgG1, kappa)
# heavy: not shown
# light: DTQVTQSPSSLSASVGDRVTITCITSTDIDVDMNWYQQKPGKPPKLLISQGNTLRPGVPSRFSSSGSGTDFTFTISSLQPEDFATYYCLQSDNLPLTFGQGTKLEIKRTVAAPDIQMTQSPSSLSASVGDRVTITCRASSGIISYIDWFQQKPGKAPKRLIYATFDLASGVPSRFSGSGSGTDYTLTISSLQPEDFATYYCRQVGSYPETFGQGTKLEIKRTVAAPSVFIFPPSDEQLKSGTASVVCLLNNFYPREAKVQWKVDNALQSGNSQESVTEQDSKDSTYSLSSTLTLSKADYEKHKVYACEVTHQGLSSPVTKSFNRGEC
# B5: DVD1627 (bispecific antibody, human IgG1, kappa)
# heavy: not shown
# light: B4 light with D1E, Q3T
# B6: DVD1629 (bispecific antibody, human IgG1, kappa)
# heavy: not shown
# light: DIQMTQSPSSLSASVGDRVTITCRASGNIHNYLTWYQQTPGKAPKLLIYNAKTLADGVPSRFSGSGSGTDYTFTISSLQPEDIATYYCQHFWSIPYTFGQGTKLQITRTVAAPEIVLTQSPDFQSVTPKEKVTITCRASQDIGSELHWYQQKPDQPPKLLIKYASHSTSGVPSRFSGSGSGTDFTLTINGLEAEDAGTYYCHQTDSLPYTFGPGTKVDIKRTVAAPSVFIFPPSDEQLKSGTASVVCLLNNFYPREAKVQWKVDNALQSGNSQESVTEQDSKDSTYSLSSTLTLSKADYEKHKVYACEVTHQGLSSPVTKSFNRGEC
# B7: DVD1631 (bispecific antibody, human IgG1, kappa)
# heavy: not shown
# light: B6 light
# B8: DVD1630 (bispecific antibody, human IgG1, kappa)
# heavy: not shown
# light: EIVLTQSPDFQSVTPKEKVTITCRASQDIGSELHWYQQKPDQPPKLLIKYASHSTSGVPSRFSGSGSGTDFTLTINGLEAEDAGTYYCHQTDSLPYTFGPGTKVDIKRTVAAPDIQMTQSPSSLSASVGDRVTITCRASGNIHNYLTWYQQTPGKAPKLLIYNAKTLADGVPSRFSGSGSGTDYTFTISSLQPEDIATYYCQHFWSIPYTFGQGTKLQITRTVAAPSVFIFPPSDEQLKSGTASVVCLLNNFYPREAKVQWKVDNALQSGNSQESVTEQDSKDSTYSLSSTLTLSKADYEKHKVYACEVTHQGLSSPVTKSFNRGEC
# B9: DVD1632 (bispecific antibody, human IgG1, kappa)
# heavy: not shown
# light: B8 light
# B10: DVD1625 (bispecific antibody, human IgG1, kappa)
# heavy: not shown
# light: DTVVTQSPAFLSVTPGEKVTITCITSTDIDVDMNWYQQKPDQPPKLLISQGNTLRPGVPSRFSSSGSGTDFTFTISSLEAEDAATYYCLQSDNLPLTFGQGTKLEIKRTVAAPDIQMTQSPSSLSASVGDRVTITCRASSGIISYIDWFQQKPGKAPKRLIYATFDLASGVPSRFSGSGSGTDYTLTISSLQPEDFATYYCRQVGSYPETFGQGTKLEIKRTVAAPSVFIFPPSDEQLKSGTASVVCLLNNFYPREAKVQWKVDNALQSGNSQESVTEQDSKDSTYSLSSTLTLSKADYEKHKVYACEVTHQGLSSPVTKSFNRGEC
# B11: DVD1644 (bispecific antibody, human IgG1, kappa)
# heavy: not shown
# light: EIVLTQSPDFQSVTPKEKVTITCRASQNIGSELHWYQQKPDQSPKLLIKYASHSISGVPSRFSGSGSGTDFTLTINGLEAEDAATYYCHQSDTLPHTFGQGTKVDIKRTVAAPDTQVTQSPSSLSASVGDRVTITCITSTDIDVDMNWYQQKPGKPPKLLISQGNTLRPGVPSRFSSSGSGTDFTFTISSLQPEDFATYYCLQSDNLPLTFGQGTKLEIKRTVAAPSVFIFPPSDEQLKSGTASVVCLLNNFYPREAKVQWKVDNALQSGNSQESVTEQDSKDSTYSLSSTLTLSKADYEKHKVYACEVTHQGLSSPVTKSFNRGEC
# B12: DVD1268 (bispecific antibody, human IgG1, kappa)
# heavy: not shown
# light: B10 light
# notes: DVD-Ig, outer AB271, inner AB273, linker set 1; V1 wt hIgG1, V2 kappa; also called DVD1268H; DVD1268L
# B13: DVD1262 (bispecific antibody, human IgG1, kappa)
# heavy: not shown
# light: DIQMTQSPSSLSASVGDRVTITCRASGNIHNYLTWYQQTPGKAPKLLIYNAKTLADGVPSRFSGSGSGTDYTFTISSLQPEDIATYYCQHFWSIPYTFGQGTKLQITRTVAAPDIQMTQSPSSLSASVGDRVTITCRASSGIISYIDWFQQKPGKAPKRLIYATFDLASGVPSRFSGSGSGTDYTLTISSLQPEDFATYYCRQVGSYPETFGQGTKLEIKRTVAAPSVFIFPPSDEQLKSGTASVVCLLNNFYPREAKVQWKVDNALQSGNSQESVTEQDSKDSTYSLSSTLTLSKADYEKHKVYACEVTHQGLSSPVTKSFNRGEC
# notes: V1 wt hIgG1, V2 kappa; also called DVD1262H; DVD1262L
# B14: DVD1264 (bispecific antibody, human IgG1, kappa)
# heavy: not shown
# light: B13 light
# notes: V1 wt hIgG1, V2 kappa; also called DVD1264H; DVD1264L
# Molecular target: Recombinant Human IL-1β (human, UniProt P01584 117-269)
# Assay: cell-based or functional assay
C-Terminal VD IL-1β Neutralization Assay EC50,N-Terminal VD IL-1β Neutralization Assay EC50,Binder
17.4 nM,,B1
> 20 nM,,B2
5.85 nM,,B3
,0.16 nM,B4
,0.621 nM,B5
,0.0126 nM,B6
,0.00417 nM,B7
9.38 nM,,B8
0.438 nM,,B9
,0.522 nM,B10
1.08 nM,,B11

# Molecular target: T1, Recombinant Human IL-17
# Assay: cell-based or functional assay
N-terminal VD IL-17 Neutralization Assay EC50,C-terminal VD IL-17 Neutralization Assay EC50,Binder
0.0064 nM,,B1
0.0042 nM,,B2
0.0163 nM,,B3
,0.0238 nM,B4
,0.0586 nM,B5
,0.359 nM,B6
,0.46 nM,B7
0.0041 nM,,B8
0.0065 nM,,B9
,0.0076 nM,B10
0.0122 nM,,B11

# Molecular target: T2, Recombinant Human IL-17
# Assay: Biacore SPR; C-terminal VD
# How it was run: (§1)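 Reported constants are kon (M⁻¹s⁻¹), koff (s⁻¹) and KD, calculated as koff/kon from a global 1:1 Langmuir fit. Antigen at 10−200 nM was passed over antibody or DVD-Ig captured on an anti-mouse IgG Fcγ surface in HBS-EP pH 7.4 at 25° C.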
Kd,koff,kon,Binder
< 0.02 nM,< 1e-06 s⁻¹,51000 M⁻¹ s⁻¹,B12
12 nM,0.0001 s⁻¹,8500 M⁻¹ s⁻¹,B13
0.3 nM,1.1e-05 s⁻¹,37000 M⁻¹ s⁻¹,B14

# Molecular target: T3, Recombinant Human IL-1β (human, UniProt P01584 117-269)
# T3 construct: bought reagent; also called IL-1B
# Assay: Biacore SPR; N-terminal VD
# How it was run: as §1
Kd,koff,kon,Binder
0.067 nM,0.00057 s⁻¹,8.5e+06 M⁻¹ s⁻¹,B12
0.033 nM,4.8e-05 s⁻¹,1.4e+06 M⁻¹ s⁻¹,B13
0.024 nM,2.2e-05 s⁻¹,940000 M⁻¹ s⁻¹,B14
